Experimental data reported in publication PMC6297234, “aPKC controls endothelial growth by modulating c-Myc via FoxO1 DNA-binding ability”.

Target: GST-FoxO1 DBD (Homo sapiens, UniProt Q12778 151-266)
Assay: EMSA; 1 µM protein, 1 nM DNA, 1 ng/mL poly dI-dC; 20 mM Tris pH 8.0, 50 mM KCl, 5% glycerol, 2 mM DTT, 0.2 mM EDTA, 2 mM MgCl2, 0.1 mg/mL BSA, 1 ng/mL poly dI-dC; RT 30 min; 6% gel in 0.5X TBE at 4 °C
Details: protein: recombinant; tags: GST (pDEST15, N-terminal); blunt

Sequence of GST-FoxO1 DBD (Q12778 151-266): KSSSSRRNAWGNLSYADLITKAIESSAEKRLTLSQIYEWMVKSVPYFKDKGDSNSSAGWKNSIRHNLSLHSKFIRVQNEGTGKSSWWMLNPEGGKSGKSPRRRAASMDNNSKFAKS

B1: FoxO DBE duplex (dsDNA)
DNA 1: CAAAATGTAAACAAGA
DNA 2: TCTTGTTTACATTTTG
  binding result: binds
